From US20230220589A1

Experiments:
[1] = target: M44-modified Q NTAA target peptides; test: encoding assay; P2 E
[2] = target: M44-modified N NTAA target peptides; test: encoding assay; P2 E
[3] = target: M44-modified I NTAA target peptides (M44-I-P2-peptide); test: encoding assay; P2 E
[4] = target: M44-modified Y NTAA target peptides (M44-Y-P2-peptide); test: encoding assay; P2 E;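 further: fraction of recording tags encoded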
[5] = target: M44-modified D NTAA target peptides; test: encoding assay; P2 E;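 further: fraction of recording tags encoded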
[6] = target: M44-modified L NTAA target peptides (M44-L-P2-peptide); test: encoding assay; P2 E;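 further: fraction of recording tags encoded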
[7] = target: M44-modified A NTAA target peptides (M44-A-P2-peptide); test: encoding assay; P2 E
[8] = target: M44-modified H NTAA target peptides; test: encoding assay; P2 E
[9] = target: M44-modified V NTAA target peptides; test: encoding assay; P2 E;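 further: fraction of recording tags encoded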
[10] = target: M44-modified S NTAA target peptides; test: encoding assay; P2 E
[11] = target: M44-modified F NTAA target peptides (M44-F-P2-peptide); test: encoding assay; P2 E;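 further: fraction of recording tags encoded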
[12] = target: M44-modified E NTAA target peptides; test: encoding assay; P2 E;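 further: fraction of recording tags encoded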
[13] = target: M44-modified T NTAA target peptides; test: encoding assay; P2 E
[14] = target: M44-modified P NTAA target peptides; test: encoding assay; P2 E;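 further: fraction of recording tags encoded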
[15] = target: M44-modified M NTAA target peptides; test: encoding assay; P2 E
[16] = target: M44-modified W NTAA target peptides; test: encoding assay; P2 E;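 further: fraction of recording tags encoded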
[17] = target: M44-modified N NTAA target peptides; test: encoding assay; P2 M
[18] = target: M44-modified I NTAA target peptides (M44-I-P2-peptide); test: encoding assay; P2 M
[19] = target: M44-modified L NTAA target peptides (M44-L-P2-peptide); test: encoding assay; P2 M;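 further: fraction of recording tags encoded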
[20] = target: M44-modified V NTAA target peptides; test: encoding assay; P2 M;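 further: fraction of recording tags encoded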
[21] = target: M44-modified F NTAA target peptides (M44-F-P2-peptide); test: encoding assay; P2 M;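 further: fraction of recording tags encoded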
[22] = target: M44-modified E NTAA target peptides; test: encoding assay; P2 M;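 further: fraction of recording tags encoded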
[23] = target: M44-modified T NTAA target peptides; test: encoding assay; P2 M
[24] = target: M44-modified P NTAA target peptides; test: encoding assay; P2 M;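 further: fraction of recording tags encoded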
[25] = target: M44-modified M NTAA target peptides; test: encoding assay; P2 M
[26] = target: M44-modified Q NTAA target peptides; test: encoding assay; P2 V
[27] = target: M44-modified N NTAA target peptides; test: encoding assay; P2 V
[28] = target: M44-modified I NTAA target peptides (M44-I-P2-peptide); test: encoding assay; P2 V
[29] = target: M44-modified Y NTAA target peptides (M44-Y-P2-peptide); test: encoding assay; P2 V;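 further: fraction of recording tags encoded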
[30] = target: M44-modified D NTAA target peptides; test: encoding assay; P2 V;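 further: fraction of recording tags encoded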
[31] = target: M44-modified L NTAA target peptides (M44-L-P2-peptide); test: encoding assay; P2 V;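 further: fraction of recording tags encoded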
[32] = target: M44-modified A NTAA target peptides (M44-A-P2-peptide); test: encoding assay; P2 V
[33] = target: M44-modified H NTAA target peptides; test: encoding assay; P2 V
[34] = target: M44-modified S NTAA target peptides; test: encoding assay; P2 V
[35] = target: M44-modified F NTAA target peptides (M44-F-P2-peptide); test: encoding assay; P2 V;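 further: fraction of recording tags encoded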
[36] = target: M44-modified T NTAA target peptides; test: encoding assay; P2 V
[37] = target: M44-modified P NTAA target peptides; test: encoding assay; P2 V;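 further: fraction of recording tags encoded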
[38] = target: M44-modified M NTAA target peptides; test: encoding assay; P2 V
[39] = target: M44-modified W NTAA target peptides; test: encoding assay; P2 V;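 further: fraction of recording tags encoded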
[40] = target: M44-modified Q NTAA target peptides; test: encoding assay; P2 N
[41] = target: M44-modified N NTAA target peptides; test: encoding assay; P2 N
[42] = target: M44-modified I NTAA target peptides (M44-I-P2-peptide); test: encoding assay; P2 N
[43] = target: M44-modified Y NTAA target peptides (M44-Y-P2-peptide); test: encoding assay; P2 N;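 further: fraction of recording tags encoded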
[44] = target: M44-modified D NTAA target peptides; test: encoding assay; P2 N;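 further: fraction of recording tags encoded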
[45] = target: M44-modified L NTAA target peptides (M44-L-P2-peptide); test: encoding assay; P2 N;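 further: fraction of recording tags encoded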
[46] = target: M44-modified H NTAA target peptides; test: encoding assay; P2 N
[47] = target: M44-modified V NTAA target peptides; test: encoding assay; P2 N;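 further: fraction of recording tags encoded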
[48] = target: M44-modified S NTAA target peptides; test: encoding assay; P2 N
[49] = target: M44-modified F NTAA target peptides (M44-F-P2-peptide); test: encoding assay; P2 N;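 further: fraction of recording tags encoded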
[50] = target: M44-modified E NTAA target peptides; test: encoding assay; P2 N;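 further: fraction of recording tags encoded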
[51] = target: M44-modified M NTAA target peptides; test: encoding assay; P2 N
[52] = target: M44-modified W NTAA target peptides; test: encoding assay; P2 N;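 further: fraction of recording tags encoded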

B1: engineered M44-L binder (SEQ ID NO: 21) (designed binder, not shown: small tags and cut ends; large carriers)
chain: QVSVQPNFQQDKFLGRWFYAGHASNSSWYREKVAALSMAKLVVAPATDGGLNATETFLRKNQCETITSLLQPAGSLGSYSSRSPHGGSTWSTSVVETDYDQYALLYLQGSKGPGEDFRGAILASRTQTPRAELKEKFTAFSKAQGFTEDTIVFLPQTDKCMTEQ
encoding yield [1]: 0.01 | encoding yield [2]: 0.01 | encoding yield [3]: 0 | encoding yield [4]: 0.02 | encoding yield [5]: 0.01 | encoding yield [6]: 0.01 | encoding yield [7]: 0.01 | encoding yield [8]: 0.01 | encoding yield [9]: 0.01 | encoding yield [10]: 0.01 | encoding yield [11]: 0 | encoding yield [12]: 0.01 | encoding yield [13]: 0.01 | encoding yield [14]: 0.01 | encoding yield [15]: 0 | encoding yield [16]: 0.01 | encoding yield [17]: 0.01 | encoding yield [18]: 0.1 | encoding yield [19]: 0.02 | encoding yield [20]: 0.01 | encoding yield [21]: 0.02 | encoding yield [22]: 0.01 | encoding yield [23]: 0.02 | encoding yield [24]: 0.01 | encoding yield [25]: 0 | encoding yield [26]: 0.01 | encoding yield [27]: 0.01 | encoding yield [28]: 0.09 | encoding yield [29]: 0.02 | encoding yield [30]: 0.01 | encoding yield [31]: 0.09 | encoding yield [32]: 0.01 | encoding yield [33]: 0.01 | encoding yield [34]: 0.01 | encoding yield [35]: 0.04 | encoding yield [36]: 0.01 | encoding yield [37]: 0.01 | encoding yield [38]: 0.08 | encoding yield [39]: 0.02 | encoding yield [40]: 0.01 | encoding yield [41]: 0.01 | encoding yield [42]: 0.09 | encoding yield [43]: 0.01 | encoding yield [44]: 0.01 | encoding yield [45]: 0.16 | encoding yield [46]: 0.01 | encoding yield [47]: 0.03 | encoding yield [48]: 0.01 | encoding yield [49]: 0 | encoding yield [50]: 0.01 | encoding yield [51]: 0.02 | encoding yield [52]: 0.01

B2: engineered M44-L binder (SEQ ID NO: 31) (designed binder, not shown: small tags and cut ends; large carriers)
chain: QDSTQNLIPAPPLISVPLQPGFWTERFQGRWFLVGFAGNAVQKERQSRLTMQSLILELQEDNSYNITAINVRGQGCRYIISTLVPSSRPGQFTLGNIHSYPQIQSLDVQVADTDYDQFAMVFLQGTSENKQYFEVALAGRTKGLSDELKERFVSFAKSLGLKDNNIVFSVPTDQCIDN
encoding yield [1]: 0.02 | encoding yield [2]: 0.01 | encoding yield [3]: 0.01 | encoding yield [4]: 0.05 | encoding yield [5]: 0.02 | encoding yield [6]: 0.03 | encoding yield [7]: 0.03 | encoding yield [8]: 0.02 | encoding yield [9]: 0.02 | encoding yield [10]: 0.03 | encoding yield [11]: 0.01 | encoding yield [12]: 0.02 | encoding yield [13]: 0.02 | encoding yield [14]: 0.03 | encoding yield [15]: 0.01 | encoding yield [16]: 0.03 | encoding yield [17]: 0.02 | encoding yield [18]: 0.17 | encoding yield [19]: 0.19 | encoding yield [20]: 0.03 | encoding yield [21]: 0.07 | encoding yield [22]: 0.03 | encoding yield [23]: 0.05 | encoding yield [24]: 0.02 | encoding yield [25]: 0.02 | encoding yield [26]: 0.02 | encoding yield [27]: 0.05 | encoding yield [28]: 0.09 | encoding yield [29]: 0.07 | encoding yield [30]: 0.03 | encoding yield [31]: 0.18 | encoding yield [32]: 0.04 | encoding yield [33]: 0.04 | encoding yield [34]: 0.04 | encoding yield [35]: 0.19 | encoding yield [36]: 0.03 | encoding yield [37]: 0.02 | encoding yield [38]: 0.05 | encoding yield [39]: 0.1 | encoding yield [40]: 0.02 | encoding yield [41]: 0.03 | encoding yield [42]: 0.03 | encoding yield [43]: 0.05 | encoding yield [44]: 0.01 | encoding yield [45]: 0.14 | encoding yield [46]: 0.03 | encoding yield [47]: 0.04 | encoding yield [48]: 0.03 | encoding yield [49]: 0.01 | encoding yield [50]: 0.02 | encoding yield [51]: 0.02 | encoding yield [52]: 0.01

B3: engineered M44-A binder (SEQ ID NO: 42) (designed binder, not shown: small tags and cut ends; large carriers)
chain: QVSVQPNFQQDKFLGRWFVAGLASNSSWDREKVAALSGAKMVVAPATDGGLNVTRTMLRKNQCETYTGLLQPAGSLGSYSWRSPHPGSTGSESVVETDYDQYALVYGQGSKGPGEDLRAAALWSRTQTPRAELKEKFTAFSKAQGFTEDTIVFLPQTDKCMTEQ
encoding yield [1]: 0.03 | encoding yield [2]: 0.02 | encoding yield [3]: 0.02 | encoding yield [4]: 0.06 | encoding yield [5]: 0.03 | encoding yield [6]: 0.04 | encoding yield [7]: 0.05 | encoding yield [8]: 0.03 | encoding yield [9]: 0.06 | encoding yield [10]: 0.02 | encoding yield [11]: 0.02 | encoding yield [12]: 0.02 | encoding yield [13]: 0.03 | encoding yield [14]: 0.05 | encoding yield [15]: 0.01 | encoding yield [16]: 0.04 | encoding yield [17]: 0.02 | encoding yield [18]: 0.15 | encoding yield [19]: 0 | encoding yield [20]: 0.12 | encoding yield [21]: 0.04 | encoding yield [22]: 0.03 | encoding yield [23]: 0.21 | encoding yield [24]: 0.03 | encoding yield [25]: 0.02 | encoding yield [26]: 0.04 | encoding yield [27]: 0.04 | encoding yield [28]: 0.05 | encoding yield [29]: 0.06 | encoding yield [30]: 0.03 | encoding yield [31]: 0.04 | encoding yield [32]: 0.17 | encoding yield [33]: 0.05 | encoding yield [34]: 0.05 | encoding yield [35]: 0.09 | encoding yield [36]: 0.12 | encoding yield [37]: 0.04 | encoding yield [38]: 0.04 | encoding yield [39]: 0.06 | encoding yield [40]: 0.04 | encoding yield [41]: 0.05 | encoding yield [42]: 0.03 | encoding yield [43]: 0.05 | encoding yield [44]: 0.02 | encoding yield [45]: 0.04 | encoding yield [46]: 0.03 | encoding yield [47]: 0.08 | encoding yield [48]: 0.05 | encoding yield [49]: 0 | encoding yield [50]: 0.03 | encoding yield [51]: 0.02 | encoding yield [52]: 0.01
